This data set addresses T1, MqsA (Escherichia coli (strain of the protein not stated)) (UniProt Q46864).
T1 sequence: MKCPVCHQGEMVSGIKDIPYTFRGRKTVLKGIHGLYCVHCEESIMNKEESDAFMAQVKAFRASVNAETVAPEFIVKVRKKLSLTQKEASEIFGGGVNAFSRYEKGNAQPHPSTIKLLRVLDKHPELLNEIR
Kind of data set: EMSA. The following applies: 10 mM Tris-HCl pH 7.5, 50 mM KCl, 1 mM DTT, 1 ug poly(dI.dC), 30-50 fmol labeled probe, ambient temperature, 1 h; 6% gel, 0.5x TBE. For orientation: A gel shift assay detects complexes by their altered migration in electrophoresis.

On to “CGTGTATGTGGTGTGCGTTTTTCCATAACCCCCGCCTCCCTGTTACTTTAGTTATAACCTAAAAGGTTAATTACAGCAATGAAAAAGCACCTAAAAGGTTAGTTAGATGTACGGAGATAGTGACCACACAAAACGTATTCTTTAAGGAAAGTGATTGACCATATAAGAAAGTGGCGCATTAGTAGCGCCAGTTTGAAGCAGGAATTTATAAGGGAAGCTGGAGTCAGGCATCAC (double strand) [p-mqsRA (234 bp)]”, for which the binding result is listed as “binds”.

These data come from article PMC4894380.
